These results are taken from patent US20250003958A1.

Test [1] deals with CD8 on CD8-positive cells (PBMCs in Example 1, Immuno-Trol cells in Example 3) (UniProt P01732). The experiment in a line: negative control; magnetic bead depletion of Immuno-Trol cells, flow cytometry of the supernatant (41% before addition of beads).
For test [2] the target is unchanged. Briefly: negative control; magnetic bead depletion of Immuno-Trol cells, flow cytometry of the supernatant (59% before addition of beads).
For test [3], the target named is CD4 on CD4-positive cells (PBMCs) (UniProt P01730). Briefly: negative control; cells trapped by beads, released with DNase I, flow cytometry. Background: A flow cytometer gives signals particle by particle.
Test [4] deals with CD8 on CD8-positive cells (PBMCs in Example 1, Immuno-Trol cells in Example 3) (UniProt P01732). The description is as above.
Test [5] has the same target. Briefly: negative control; magnetic bead depletion of PBMCs, flow cytometry of the supernatant (28% before addition of beads).
For test [6] the target is unchanged. Briefly: negative control; magnetic bead depletion of PBMCs, flow cytometry of the supernatant (72% before addition of beads).
Test [7] has as its target CD4 on CD4-positive cells (PBMCs) (UniProt P01730). The experiment in a line: negative control; magnetic bead depletion of PBMCs, flow cytometry of the supernatant (18% before addition of beads).
For test [8] the target is unchanged. The experiment in a line: negative control; magnetic bead depletion of PBMCs, flow cytometry of the supernatant (82% before addition of beads).

UniProt P01732, sequence (P01732 22-235): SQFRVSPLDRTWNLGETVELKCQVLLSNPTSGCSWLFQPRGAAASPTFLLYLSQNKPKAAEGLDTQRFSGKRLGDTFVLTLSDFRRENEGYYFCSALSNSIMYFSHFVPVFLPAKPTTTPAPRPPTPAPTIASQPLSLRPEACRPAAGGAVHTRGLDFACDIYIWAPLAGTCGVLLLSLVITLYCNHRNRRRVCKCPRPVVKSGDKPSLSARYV

On to “Control antibody (Biolegend), held on streptavidin magnetic beads through oligo-DNA-modified Protein A/G”, for which the Ratio of CD3-positive and CD4-negative cells remaining in the supernatant in test [1] came to 39%. The Ratio of CD3-positive and CD4-positive cells remaining in the supernatant in test [2] was determined as 61%.
Take “Isotype Control antibody (Biolegend), modified with FITC-introduced synthetic oligo-DNA linker and immobilized on streptavidin magnetic beads”: the Ratio of FITC-positive cells in test [3] turned out to be 26%; in test [4], 19%. In test [5], the Ratio of CD3-positive and CD4-negative cells remaining in the supernatant was 33%. The Ratio of CD3-positive and CD4-positive cells remaining in the supernatant in test [6] was 67%. In addition, the Ratio of CD3-positive and CD8-positive cells remaining in the supernatant in test [7] came out at 19%. Moreover, the Ratio of CD3-positive and CD8-negative cells remaining in the supernatant in test [8] was determined as 81%.
